Values quoted from earlier work, collected in paper PMC5053023.

Biological target: SRSF1 RS domain (Homo sapiens) (UniProt Q07955)
Sequence of UniProt Q07955 (Q07955 198-248): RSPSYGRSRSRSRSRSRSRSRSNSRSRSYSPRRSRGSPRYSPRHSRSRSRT

Kd: 0.1 µM
Substance: SRPK1 (from UniProt Q96SB4)
